Reference: patent US20180222961A1

Target: HLA-A*02:01 (human)
Assay: UV-exchange b2m ELISA; exchange-yield grade
Settings: remark: other sources report otherwise

peptide exchange yield: 50 to 75%
Binder: SVFAHPRKL […]
